Source: patent US20170096493A1 (EISAI R AND D MANAGEMENT, published 2017)

Experiments:
[1] = target: T1, Notch4 with a part of the intracellular domain substituted with GAL4 DNA binding domain, on b.end3 reporter …; experiment: cell-based or functional assay
[2] = target: T1, Notch4 with a part of the intracellular …; experiment: cell-based or functional assay; remark: listed apart in the source
[3] = target: T2, Human Notch4-NRR domain Fc fusion protein (human, UniProt Q99466 1046-1445, limits assumed); experiment: SPR (Biacore) as for Table 30; Notch4-NRR-Fc captured, antibody injected; averaged, N=2
T2 construct: Expressed in a CHO cell line, used from culture supernatant; 1 is named; also called Human Notch4-NRR Fusion Protein; not shown: Fc
T2 sequence: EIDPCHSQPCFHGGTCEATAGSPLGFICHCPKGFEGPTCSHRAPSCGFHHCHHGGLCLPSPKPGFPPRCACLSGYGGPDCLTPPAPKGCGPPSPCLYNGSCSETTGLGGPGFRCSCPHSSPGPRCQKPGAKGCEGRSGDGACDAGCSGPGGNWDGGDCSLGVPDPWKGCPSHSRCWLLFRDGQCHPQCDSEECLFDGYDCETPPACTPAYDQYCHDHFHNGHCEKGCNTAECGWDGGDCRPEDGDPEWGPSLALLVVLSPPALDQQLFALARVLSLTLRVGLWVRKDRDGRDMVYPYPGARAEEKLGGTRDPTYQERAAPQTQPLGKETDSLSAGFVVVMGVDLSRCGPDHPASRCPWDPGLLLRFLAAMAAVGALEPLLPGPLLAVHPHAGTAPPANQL

[4] = target: T3, Human Notch4-NRR domain fused with secretory alkaline phosphatase (SEAP) and 10× histidine tag (human, UniProt Q99466 1046-1445); experiment: SPR (Biacore); antibody captured by anti-human IgG Fc on CM5, Notch4-NRR-SEAP-His injected
T3 construct: 1 is named; not shown: secretory alkaline phosphatase (SEAP); 10x histidine tag
T3 sequence: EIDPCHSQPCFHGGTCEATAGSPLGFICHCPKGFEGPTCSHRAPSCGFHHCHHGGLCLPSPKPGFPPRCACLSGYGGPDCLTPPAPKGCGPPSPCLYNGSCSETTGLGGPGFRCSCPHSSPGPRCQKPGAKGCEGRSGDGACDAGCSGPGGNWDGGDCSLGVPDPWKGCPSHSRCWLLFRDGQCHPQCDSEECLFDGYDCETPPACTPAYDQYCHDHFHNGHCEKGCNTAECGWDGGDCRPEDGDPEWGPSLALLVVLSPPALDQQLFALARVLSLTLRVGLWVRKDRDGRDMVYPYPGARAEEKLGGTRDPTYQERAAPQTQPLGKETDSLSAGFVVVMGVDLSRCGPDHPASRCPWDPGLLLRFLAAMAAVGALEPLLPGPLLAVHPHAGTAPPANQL
Method: (§1) Kinetic analysis of the interaction of human, cynomolgus monkey, mouse, and rat Notch4-NRR domains with Antibody B was carried out with BIACORE. […] The genes for these proteins were transfected into Expi293F cells in Opti-MEM (INVITROGEN) using ExpiFectamine 293. These cells were cultured in Expi293 Expression Medium (INVITROGEN). Briefly, cells were diluted to 7.5×10⁷ cells/25.5 mL, and transfected by ExpiFectamine 293 reagent on Day 0. About 16 hours after transfection, 150 uL of ExpiFectamine 293 Transfection Enhancer 1 and 1.5 mL of ExpiFectamine 293 Transfection Enhancer 2 were added to each flask. The supernatant was collected on Day 4. These antigens were purified with Ni-NTA Superflow column (QIAGEN). The interaction was analyzed as below. The purified Antibody B was captured by anti-human IgG Fc antibody fixed on a CM5 sensor chip (GE healthcare). The purified Notch4-NRR fusion proteins were injected onto the sensor chip at 8 different concentrations, and the interaction and dissociation thereof were observed as per manufacturer's instructions.

[5] = target: T4, Cynomolgus monkey Notch4-NRR domain fused with SEAP and 10× histidine tag (cynomolgus monkey, UniProt P05187 23-511 (human entry)); experiment: as above
T4 construct: not shown: 10x histidine tag
T4 sequence (P05187 23-511): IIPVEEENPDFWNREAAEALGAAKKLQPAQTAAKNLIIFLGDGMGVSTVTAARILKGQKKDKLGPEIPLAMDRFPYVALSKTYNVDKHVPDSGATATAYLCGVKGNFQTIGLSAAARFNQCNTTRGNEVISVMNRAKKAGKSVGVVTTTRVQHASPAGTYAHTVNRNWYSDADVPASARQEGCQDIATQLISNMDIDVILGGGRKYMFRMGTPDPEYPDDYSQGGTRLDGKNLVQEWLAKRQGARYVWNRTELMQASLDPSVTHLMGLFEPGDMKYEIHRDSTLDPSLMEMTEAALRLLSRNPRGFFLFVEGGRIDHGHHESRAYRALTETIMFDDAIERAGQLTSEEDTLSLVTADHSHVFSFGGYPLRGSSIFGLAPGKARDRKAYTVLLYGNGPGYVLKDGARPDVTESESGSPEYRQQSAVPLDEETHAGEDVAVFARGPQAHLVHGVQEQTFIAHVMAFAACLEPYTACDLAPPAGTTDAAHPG
Method: as §1

[6] = target: T5, Mouse Notch4-NRR domain fused with SEAP and 10× histidine tag (mouse, UniProt P31695 1042-1441); experiment: as above
T5 construct: domain: Notch4-NRR domain; not shown: secretory alkaline phosphatase (SEAP); 10x histidine tag
T5 sequence (looked up): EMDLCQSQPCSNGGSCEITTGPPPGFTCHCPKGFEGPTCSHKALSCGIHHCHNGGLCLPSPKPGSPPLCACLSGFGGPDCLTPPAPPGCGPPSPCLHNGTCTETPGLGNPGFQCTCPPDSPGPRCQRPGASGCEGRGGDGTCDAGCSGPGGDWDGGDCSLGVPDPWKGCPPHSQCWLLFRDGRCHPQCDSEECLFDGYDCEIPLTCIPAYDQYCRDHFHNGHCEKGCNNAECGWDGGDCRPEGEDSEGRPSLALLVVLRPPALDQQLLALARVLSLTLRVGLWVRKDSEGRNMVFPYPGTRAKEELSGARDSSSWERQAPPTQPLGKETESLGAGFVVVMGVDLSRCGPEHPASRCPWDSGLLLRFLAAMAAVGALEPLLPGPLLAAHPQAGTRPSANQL
Method: as §1

[7] = target: T2, Human Notch4-NRR domain Fc fusion …; experiment: SPR (Biacore); Notch4-NRR-Fc captured by another anti-Notch4 antibody on CM5, antibody injected
Method: Kinetic analysis of further anti-Notch4 inhibitory humanized antibodies was carried out as follows. Human Notch4-NRR domain Fc fusion proteins were expressed with a CHO cell line. The antigen in the culture supernatant was captured by the anti-human Notch4 antibody fixed on a CM5 sensor chip that recognizes different epitopes of human Notch4. The humanized anti-human Notch4 antibody was then injected onto the sensor chip at various concentrations. The interaction and disassociation constants thereof were calculated according to manufacturer's instructions.

[8] = target: T6, Human Notch4-NRR-SEAP-HA-His (human, UniProt Q99466 1046-1445); experiment: SPR (BIAcore T100); antibody captured by anti-human IgG Fc on CM5, NRR-SEAP-HA-His injected at 6 concentrations
T6 construct: also called human Notch4-NRR-SEAP-His; human Notch4 NRR domain; not shown: secretory alkaline phosphatase (SEAP); hemagglutinin (HA) tag; histidine tag (x10)
T6 sequence: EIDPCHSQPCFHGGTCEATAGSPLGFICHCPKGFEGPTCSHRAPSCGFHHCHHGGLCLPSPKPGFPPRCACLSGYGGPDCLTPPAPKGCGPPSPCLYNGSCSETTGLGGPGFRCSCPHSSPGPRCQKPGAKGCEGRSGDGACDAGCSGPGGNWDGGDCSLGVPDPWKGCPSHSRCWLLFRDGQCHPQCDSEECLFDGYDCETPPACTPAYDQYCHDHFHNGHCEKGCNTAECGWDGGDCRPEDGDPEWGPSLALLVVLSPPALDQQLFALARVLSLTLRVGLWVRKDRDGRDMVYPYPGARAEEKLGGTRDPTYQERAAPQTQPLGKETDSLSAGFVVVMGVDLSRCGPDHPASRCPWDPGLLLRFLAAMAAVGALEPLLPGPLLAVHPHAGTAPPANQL
Method: Kinetics analysis using BIAcore T100 was performed for the interaction between the NRR domain of human Notch isotypes (Notch1, Notch2, Notch3, and Notch4) and Antibody B. Antibody B was purified from the culture supernatant of a stable expression CHO cell line of Antibody B with sequential use of protein A affinity chromatography, Capto Q anion exchange chromatography, and UNOsphere S cation exchange chromatography. Fusion proteins of Human Notch1 NRR domain (Genbank Accession No. 017617; sequence positions 1307-1733), human Notch2 NRR domain (Genbank Accession No. 024408; sequence positions 1239-1650), human Notch3 NRR domain (Genbank Accession No. 000435; sequence positions 1246-1641), and human Notch4 NRR domain (Genbank Accession No. NP_004548.3; sequence positions 1046-1445) with secretory alkaline phosphatase (SEAP), a hemagglutinin (HA) tag, and a histidine tag (×10) were created, and these were purified with HisTrap™ Fast Flow column (GE Healthcare). The interaction between Antibody B and the NRR domain of each human Notch isotypes was measured with the following method. The purified Antibody B was captured by anti-human IgG Fc antibody fixed on a CM5 sensor chip (GE Healthcare). The purified NRR domain of each human Notch isotypes was injected onto the sensor chip at 6 different concentrations, and the interaction and dissociation with the antibody were observed as per operation manual.

IC50 of relative luminescence (%), Notch4-GAL4 luciferase reporter assay, reporter cells stimulated with solid phased DLL4 [1]: 0.011 mg/L
% of Control (relative luminescence), Notch4-GAL4 luciferase reporter assay, antibody at 10 µg/ml [2]: 10.8 % of Control
Kd [3]: 0.331 nM
koff [3]: 0.000822 s⁻¹
kon [3]: 2.48e+06 M⁻¹ s⁻¹
Kd [4]: 3.74 nM
koff [4]: 0.00118 s⁻¹
kon [4]: 317000 M⁻¹ s⁻¹
Kd [5]: 3.62 nM
koff [5]: 0.00106 s⁻¹
kon [5]: 295000 M⁻¹ s⁻¹
Kd [6]: 11.2 nM
koff [6]: 0.00727 s⁻¹
kon [6]: 601000 M⁻¹ s⁻¹
Kd [7]: 0.441 nM
koff [7]: 0.00071 s⁻¹
kon [7]: 1.66e+06 M⁻¹ s⁻¹
Kd [8]: 30.5 nM
koff [8]: 0.000831 s⁻¹
kon [8]: 27200 M⁻¹ s⁻¹
B1: Antibody B (antibody, human IgG2, kappa)
heavy: EVQLVESGGGLVQPGGSLRLSCAASGFTFSSYGMSWVRQAPGKGLELVATINSNGGRTYYPDSVKGRFTISRDNSKNTLYLQMGSLKAEDMAVYYCARDQGFAYWGQGTLVTVSSASTKGPSVFPLAPCSRSTSESTAALGCLVKDYFPEPVTVSWNSGALTSGVHTFPAVLQSSGLYSLSSVVTVPSSNFGTQTYTCNVDHKPSNTKVDKTVERKCCVECPPCPAPPAAAPSVFLFPPKPKDTLMISRTPEVTCVVVDVSHEDPEVQFNWYVDGVEVHNAKTKPREEQFNSTFRVVSVLTVVHQDWLNGKEYKCKVSNKGLPAPIEKTISKTKGQPREPQVYTLPPSREEMTKNQVSLTCLVKGFYPSDIAVEWESNGQPENNYKTTPPMLDSDGSFFLYSKLTVDKSRWQQGNVFSCSVMHEALHNHYTQKSLSLSPG
light: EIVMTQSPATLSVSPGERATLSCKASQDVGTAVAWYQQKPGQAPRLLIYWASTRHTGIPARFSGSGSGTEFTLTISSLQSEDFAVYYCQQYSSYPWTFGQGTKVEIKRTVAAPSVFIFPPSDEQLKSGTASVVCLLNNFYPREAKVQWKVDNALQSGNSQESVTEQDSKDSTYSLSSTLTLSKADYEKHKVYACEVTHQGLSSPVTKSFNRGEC
notes: Humanized IgG2 (V234A, G237A)/κ; also called HK3L3 (Lys-); HK3L3(Lys-)
